How the values were obtained:
Test in all cases: cell-based or functional assay
[1] = target: endogenous β-catenin in rat vascular smooth muscle cells (RASMCs, A7r5) (rat) (UniProt Q9WU82)
[2] = target: Myc-tagged β-catenin
[3] = target: endogenous β-catenin in mouse aortic smooth muscle cells (MASMCs) (mouse) (UniProt Q02248)

Chain of UniProt Q9WU82 (Q9WU82 2-781): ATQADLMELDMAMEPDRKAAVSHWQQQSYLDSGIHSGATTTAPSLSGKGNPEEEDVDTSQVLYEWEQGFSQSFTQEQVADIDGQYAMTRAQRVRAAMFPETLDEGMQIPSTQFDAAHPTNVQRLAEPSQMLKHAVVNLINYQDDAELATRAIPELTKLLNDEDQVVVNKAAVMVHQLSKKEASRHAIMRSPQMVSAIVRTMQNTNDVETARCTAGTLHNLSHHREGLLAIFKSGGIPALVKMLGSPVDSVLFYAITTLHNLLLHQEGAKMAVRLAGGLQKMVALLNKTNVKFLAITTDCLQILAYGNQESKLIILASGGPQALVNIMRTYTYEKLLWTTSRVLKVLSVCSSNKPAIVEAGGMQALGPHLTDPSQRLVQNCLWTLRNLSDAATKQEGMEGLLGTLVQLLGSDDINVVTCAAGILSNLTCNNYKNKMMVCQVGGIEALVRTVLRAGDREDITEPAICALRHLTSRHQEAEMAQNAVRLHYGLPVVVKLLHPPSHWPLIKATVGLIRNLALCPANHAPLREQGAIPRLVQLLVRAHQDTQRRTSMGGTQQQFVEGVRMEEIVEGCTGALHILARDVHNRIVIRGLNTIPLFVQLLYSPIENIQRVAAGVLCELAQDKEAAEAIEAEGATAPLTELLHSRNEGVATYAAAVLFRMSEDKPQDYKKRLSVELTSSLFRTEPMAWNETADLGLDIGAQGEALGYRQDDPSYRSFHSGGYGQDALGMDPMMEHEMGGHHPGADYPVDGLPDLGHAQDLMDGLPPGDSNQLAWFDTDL

| nuclear β-catenin/lamin A/C ratio in fractionated, LiCl-treated A7r5 cells [1] | inhibition of β-catenin activation of Topflash (TCF-luciferase reporter) in A7r5 cells [2] [%] | LiCl-stimulated TCF/β-catenin transcriptional activation (Topflash) in MASMCs after Fat1 knockdown (% higher than control siRNA) [3] | Substance |
| --- | --- | --- | --- |
| 0.8 | 40 |  | IL2R-Fat1IC (from UniProt P01589 22-259) |
|  |  | 30 | endogenous Fat1 in mouse aortic smooth muscle cells (MASMCs) |
|  | 55 |  | FLAG-tagged N-cadherin (receptor) |
